Biological target: SNARE (H3) domain of syntaxin-1a (aa 180–262) (rat, UniProt P32851 180-262)
Assay: assembly of purified monomers and anion-exchange chromatography

Sequence of SNARE (H3) domain of syntaxin-1a (aa 180–262) (P32851 180-262): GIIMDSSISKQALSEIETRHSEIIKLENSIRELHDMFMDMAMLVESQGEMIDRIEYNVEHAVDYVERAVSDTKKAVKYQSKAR

## NVDKVLERDQKLSELDDRADALQAGASQFETSAAKLKRKYWWKNLKMM (domain or fragment) [Syb49–96]
  binding result: binds
